Source: US20050065327A1 (AstraZeneca / MedImmune, published 2005)
Changes are numbered by the printed parent chain.

B1: BAK502G9 IgG4 (antibody, V domains shown)
VH: QVQLVQSGAEVKKPGASVKVSCKASGYTFTNYGLSWVRQAPGQGLEWMGWISANNGDTNYGQEFQGRVTMTTDTSTSTAYMELRSLRSDDTAVYYCARDSSSSWARWFFDLWGRGTLVTVSS
VL: SYVLTQPPSVSVAPGKTARITCGGNIIGSKLVHWYQQKPGQAPVLVIYDDGDRPSGIPERFSGSNSGNTATLTISRVEAGDEADYYCQVWDTGSDPVVFGGGTKLTVL
B2: BAK1183H4 scFv (scFv, V domains shown)
VH: B1 VH with S52N, A53Y, N54D, N55G, D57N, N59Q
VL: B1 VL
B3: BAK502G9 scFv (scFv, V domains shown)
VH: B1 VH
VL: B1 VL
B4: BAK1167F2 scFv (scFv, V domains shown)
VH: B1 VH with T30E, N31Q, Y32T, L34V
VL: B1 VL
B5: BAK1183H4 IgG4 (antibody, V domains shown)
VH: B1 VH with S52N, A53Y, N54D, N55G, D57N, N59Q
VL: B1 VL

Experiments:
Assay in all cases: cell-based or functional assay
[1] = target: non-human primate IL-13 (rhesus and cynomolgus, identical sequences) with carboxyl terminus affinity tag … (rhesus and cynomolgus monkey)
[2] = target: human IL-13 (recombinant, bacterially derived, Peprotech) (human, UniProt P35225 15-146)
[3] = target: native (naturally occurring) human IL-13 released from HDLM-2 cells (human, UniProt P35225 15-146)
Sequence of native (naturally occurring) human IL-13 released from HDLM-2 cells (P35225 other isoform, or with tags, fused parts or gaps): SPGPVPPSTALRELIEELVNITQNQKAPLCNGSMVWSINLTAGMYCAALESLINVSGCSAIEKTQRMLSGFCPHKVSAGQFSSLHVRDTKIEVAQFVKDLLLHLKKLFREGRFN

Sequence of human IL-13 (recombinant, bacterially derived, Peprotech) (P35225 other isoform, or with tags, fused parts or gaps): as above
Sequence of non-human primate IL-13 (rhesus and cynomolgus, identical sequences) with carboxyl terminus affinity tag … (rhesus and cynomolgus monkey) (Q864V6 19-132): as the sequence (P35225 other isoform, or with tags, fused parts or gaps) above, with G3S, P7R, R12K, M44V, S69N, H85R, L102V counted along it

| Binder | Mean TF1 IC50 [2] | further results |
| --- | --- | --- |
| B1 | – | IC50, TF-1 cell proliferation assay [1]: 2 nM |
| B2 | 0.2 nM | – |
| B3 | 8 nM | – |
| B4 | 0.2 nM | – |
| B5 | – | IC50, HDLM-2 cell proliferation assay [3]: 3.5 µM |
